Test results taken from US20190134153A1, “IMMUNOMODULATORY EFFECT OF INHALED KINASE INHIBITOR PEPTIDES IN LUNG” (MOERAE MATRIX, INC., priority 2017, published 2019).

Experiments:
Experiment in all cases: Kinase Profiling Assay
Assay type in all cases: biochemical
Details in all cases: 100 μM
Met(Y1248H)(h) = Met(Y1248H)(h) (Homo sapiens, UniProt P08581, Y1230H)
AMPKα1(h) = AMPKα1(h) (Homo sapiens, UniProt Q13131)
PDK1(h) = target: T1, PDK1(h) (Homo sapiens, UniProt O15530)
T1 sequence (O15530 1-556): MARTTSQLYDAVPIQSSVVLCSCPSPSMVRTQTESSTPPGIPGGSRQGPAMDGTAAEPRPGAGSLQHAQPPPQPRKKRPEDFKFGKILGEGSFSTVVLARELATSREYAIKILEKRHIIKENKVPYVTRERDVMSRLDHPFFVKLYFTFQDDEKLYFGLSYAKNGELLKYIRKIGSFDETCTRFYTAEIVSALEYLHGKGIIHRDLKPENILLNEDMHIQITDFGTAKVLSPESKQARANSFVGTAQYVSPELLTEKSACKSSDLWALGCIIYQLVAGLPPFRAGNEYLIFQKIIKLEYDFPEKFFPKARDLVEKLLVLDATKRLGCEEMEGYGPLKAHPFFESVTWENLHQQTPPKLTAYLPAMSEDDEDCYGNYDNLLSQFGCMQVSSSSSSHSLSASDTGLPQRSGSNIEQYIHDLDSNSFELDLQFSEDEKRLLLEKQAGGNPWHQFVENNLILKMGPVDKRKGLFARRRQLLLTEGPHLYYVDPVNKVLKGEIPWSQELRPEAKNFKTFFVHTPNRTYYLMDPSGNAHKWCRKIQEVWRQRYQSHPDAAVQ

Arg(h) = Arg(h) (Homo sapiens, UniProt P42684)
ASK1(h) = target: T2, ASK1(h) (Homo sapiens, UniProt Q99683)
T2 sequence (Q99683 1-1374): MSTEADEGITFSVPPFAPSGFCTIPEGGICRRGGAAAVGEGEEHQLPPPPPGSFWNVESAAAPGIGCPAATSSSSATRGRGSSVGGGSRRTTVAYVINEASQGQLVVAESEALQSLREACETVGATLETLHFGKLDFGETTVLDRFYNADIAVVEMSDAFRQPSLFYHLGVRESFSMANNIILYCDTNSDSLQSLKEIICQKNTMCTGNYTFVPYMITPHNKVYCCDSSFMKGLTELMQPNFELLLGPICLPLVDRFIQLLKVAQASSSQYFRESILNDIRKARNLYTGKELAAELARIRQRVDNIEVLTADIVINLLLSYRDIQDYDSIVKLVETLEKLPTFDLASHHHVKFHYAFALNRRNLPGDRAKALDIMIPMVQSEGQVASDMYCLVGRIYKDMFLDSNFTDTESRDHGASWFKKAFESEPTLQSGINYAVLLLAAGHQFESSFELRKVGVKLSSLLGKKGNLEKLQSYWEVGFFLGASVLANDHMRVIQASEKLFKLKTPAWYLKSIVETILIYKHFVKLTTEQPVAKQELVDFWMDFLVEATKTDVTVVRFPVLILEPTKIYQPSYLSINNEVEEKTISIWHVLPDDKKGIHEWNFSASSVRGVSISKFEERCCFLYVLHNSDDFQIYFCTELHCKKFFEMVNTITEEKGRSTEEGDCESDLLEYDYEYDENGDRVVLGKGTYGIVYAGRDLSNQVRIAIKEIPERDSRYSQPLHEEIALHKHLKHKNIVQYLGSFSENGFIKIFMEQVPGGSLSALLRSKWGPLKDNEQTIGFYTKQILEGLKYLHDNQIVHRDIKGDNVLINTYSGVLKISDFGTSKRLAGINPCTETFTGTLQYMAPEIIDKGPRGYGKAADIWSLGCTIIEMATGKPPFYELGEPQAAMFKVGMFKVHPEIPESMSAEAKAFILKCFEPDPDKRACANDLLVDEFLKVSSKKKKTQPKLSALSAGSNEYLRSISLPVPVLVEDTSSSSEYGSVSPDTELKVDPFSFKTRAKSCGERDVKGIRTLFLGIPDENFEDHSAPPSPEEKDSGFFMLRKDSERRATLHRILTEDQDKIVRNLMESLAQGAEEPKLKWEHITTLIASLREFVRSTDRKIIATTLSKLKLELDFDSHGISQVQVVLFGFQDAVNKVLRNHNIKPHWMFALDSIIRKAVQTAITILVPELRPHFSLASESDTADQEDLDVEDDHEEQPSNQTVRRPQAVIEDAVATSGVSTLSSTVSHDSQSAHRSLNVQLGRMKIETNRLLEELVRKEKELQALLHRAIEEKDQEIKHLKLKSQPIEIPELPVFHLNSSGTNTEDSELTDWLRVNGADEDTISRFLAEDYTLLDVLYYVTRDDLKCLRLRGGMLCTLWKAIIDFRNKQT

Aurora-B(h) = Aurora-B(h) (Homo sapiens, UniProt Q96GD4)
TLK2(h) = TLK2(h) (Homo sapiens, UniProt Q86UE8)
FGFR1(h) = FGFR1(h) (Homo sapiens, UniProt P11362)
AMPKα2(h) = AMPKα2(h) (Homo sapiens, UniProt P54646)
SGK(h) = target: T3, SGK(h) (Homo sapiens, UniProt O00141)
T3 sequence (O00141 1-431): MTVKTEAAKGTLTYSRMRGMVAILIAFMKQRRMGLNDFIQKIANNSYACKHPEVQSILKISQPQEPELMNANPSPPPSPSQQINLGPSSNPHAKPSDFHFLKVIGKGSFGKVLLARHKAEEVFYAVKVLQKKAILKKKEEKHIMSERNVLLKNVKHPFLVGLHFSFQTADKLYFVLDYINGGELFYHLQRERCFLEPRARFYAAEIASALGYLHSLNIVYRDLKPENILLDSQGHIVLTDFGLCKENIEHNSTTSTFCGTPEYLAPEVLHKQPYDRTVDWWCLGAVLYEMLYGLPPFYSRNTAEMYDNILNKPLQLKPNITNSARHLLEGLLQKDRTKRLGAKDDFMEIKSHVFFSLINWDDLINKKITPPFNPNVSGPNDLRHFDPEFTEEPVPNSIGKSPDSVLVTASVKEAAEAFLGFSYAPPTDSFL

CDK9/cyclin T1(h) = CDK9/cyclin T1(h) (Homo sapiens, UniProt P50750)
MINK(h) = MINK(h) (Homo sapiens, UniProt Q8N4C8)
MINK(h), sequence (Q8N4C8 whole entry): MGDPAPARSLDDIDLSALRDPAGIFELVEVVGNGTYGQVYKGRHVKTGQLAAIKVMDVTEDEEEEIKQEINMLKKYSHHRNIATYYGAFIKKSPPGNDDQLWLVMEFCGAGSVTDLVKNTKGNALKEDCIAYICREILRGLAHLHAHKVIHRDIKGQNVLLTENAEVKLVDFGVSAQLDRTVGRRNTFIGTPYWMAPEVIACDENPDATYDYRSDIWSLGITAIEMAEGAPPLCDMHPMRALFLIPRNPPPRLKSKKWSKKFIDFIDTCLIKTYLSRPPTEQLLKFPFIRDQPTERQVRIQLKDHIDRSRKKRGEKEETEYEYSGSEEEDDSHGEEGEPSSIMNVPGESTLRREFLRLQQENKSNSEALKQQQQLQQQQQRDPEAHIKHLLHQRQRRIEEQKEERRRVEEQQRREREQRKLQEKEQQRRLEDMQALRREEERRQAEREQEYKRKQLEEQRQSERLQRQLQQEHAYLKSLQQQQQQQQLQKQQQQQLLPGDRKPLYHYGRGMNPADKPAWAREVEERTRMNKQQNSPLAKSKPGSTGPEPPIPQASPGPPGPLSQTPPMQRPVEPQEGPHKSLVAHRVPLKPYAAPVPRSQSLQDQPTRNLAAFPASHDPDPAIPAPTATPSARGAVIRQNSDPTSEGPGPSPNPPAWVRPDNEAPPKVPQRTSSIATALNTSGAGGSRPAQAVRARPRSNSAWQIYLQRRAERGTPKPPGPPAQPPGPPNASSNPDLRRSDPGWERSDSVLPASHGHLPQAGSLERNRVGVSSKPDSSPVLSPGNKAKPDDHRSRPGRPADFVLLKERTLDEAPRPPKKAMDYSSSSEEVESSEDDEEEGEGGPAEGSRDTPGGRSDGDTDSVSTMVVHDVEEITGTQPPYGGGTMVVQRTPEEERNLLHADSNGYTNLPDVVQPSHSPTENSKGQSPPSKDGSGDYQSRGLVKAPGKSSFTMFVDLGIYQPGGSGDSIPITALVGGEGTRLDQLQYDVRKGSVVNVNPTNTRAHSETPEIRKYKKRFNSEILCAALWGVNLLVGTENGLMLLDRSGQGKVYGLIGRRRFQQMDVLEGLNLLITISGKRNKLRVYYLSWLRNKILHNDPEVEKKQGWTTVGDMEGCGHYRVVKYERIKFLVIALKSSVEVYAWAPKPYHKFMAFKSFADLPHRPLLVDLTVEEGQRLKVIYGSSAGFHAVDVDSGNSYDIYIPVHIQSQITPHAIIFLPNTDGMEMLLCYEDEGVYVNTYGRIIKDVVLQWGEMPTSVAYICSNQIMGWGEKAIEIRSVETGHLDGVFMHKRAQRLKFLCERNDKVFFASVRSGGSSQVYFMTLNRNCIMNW

CDK9/cyclin T1(h), sequence (P50750 whole entry): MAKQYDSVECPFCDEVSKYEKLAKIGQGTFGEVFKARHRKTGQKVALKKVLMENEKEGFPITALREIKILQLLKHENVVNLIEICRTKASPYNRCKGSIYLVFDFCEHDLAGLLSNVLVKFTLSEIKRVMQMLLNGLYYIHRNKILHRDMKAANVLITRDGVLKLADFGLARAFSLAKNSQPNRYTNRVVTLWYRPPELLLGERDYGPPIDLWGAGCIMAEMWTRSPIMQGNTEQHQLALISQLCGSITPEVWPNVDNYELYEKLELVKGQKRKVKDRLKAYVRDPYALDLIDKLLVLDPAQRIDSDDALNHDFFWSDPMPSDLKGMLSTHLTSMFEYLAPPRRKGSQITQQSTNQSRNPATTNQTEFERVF
CDK9/cyclin T1(h), sequence (O60563 whole entry partner): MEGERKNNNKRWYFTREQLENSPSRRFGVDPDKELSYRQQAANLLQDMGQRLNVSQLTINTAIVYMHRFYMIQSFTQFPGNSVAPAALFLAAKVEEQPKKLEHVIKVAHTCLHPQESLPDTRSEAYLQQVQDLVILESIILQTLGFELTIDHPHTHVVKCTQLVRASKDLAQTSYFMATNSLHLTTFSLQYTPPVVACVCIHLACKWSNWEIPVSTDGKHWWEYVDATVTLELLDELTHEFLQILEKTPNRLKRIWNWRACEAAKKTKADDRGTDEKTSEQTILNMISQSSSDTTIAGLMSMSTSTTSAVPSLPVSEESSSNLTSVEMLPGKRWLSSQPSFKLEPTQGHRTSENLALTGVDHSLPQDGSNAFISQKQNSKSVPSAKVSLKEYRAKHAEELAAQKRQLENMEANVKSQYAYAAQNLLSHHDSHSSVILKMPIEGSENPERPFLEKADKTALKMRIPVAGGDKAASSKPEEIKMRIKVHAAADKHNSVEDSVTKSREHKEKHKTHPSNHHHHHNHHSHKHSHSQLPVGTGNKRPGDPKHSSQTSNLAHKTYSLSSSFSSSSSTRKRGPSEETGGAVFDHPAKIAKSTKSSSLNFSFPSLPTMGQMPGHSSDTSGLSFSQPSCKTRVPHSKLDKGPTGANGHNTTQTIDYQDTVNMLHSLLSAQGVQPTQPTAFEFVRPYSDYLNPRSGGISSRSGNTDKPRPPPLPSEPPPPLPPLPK
Aurora-B(h), sequence (Q96GD4 whole entry): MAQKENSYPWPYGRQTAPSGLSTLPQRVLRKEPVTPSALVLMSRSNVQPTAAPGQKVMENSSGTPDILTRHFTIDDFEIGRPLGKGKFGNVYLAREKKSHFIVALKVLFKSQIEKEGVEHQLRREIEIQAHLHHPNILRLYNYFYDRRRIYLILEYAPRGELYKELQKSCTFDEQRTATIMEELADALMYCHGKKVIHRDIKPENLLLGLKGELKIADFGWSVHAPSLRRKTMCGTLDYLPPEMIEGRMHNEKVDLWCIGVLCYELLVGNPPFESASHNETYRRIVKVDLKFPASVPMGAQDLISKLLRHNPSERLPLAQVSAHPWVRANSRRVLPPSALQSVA
TLK2(h), sequence (Q86UE8 whole entry): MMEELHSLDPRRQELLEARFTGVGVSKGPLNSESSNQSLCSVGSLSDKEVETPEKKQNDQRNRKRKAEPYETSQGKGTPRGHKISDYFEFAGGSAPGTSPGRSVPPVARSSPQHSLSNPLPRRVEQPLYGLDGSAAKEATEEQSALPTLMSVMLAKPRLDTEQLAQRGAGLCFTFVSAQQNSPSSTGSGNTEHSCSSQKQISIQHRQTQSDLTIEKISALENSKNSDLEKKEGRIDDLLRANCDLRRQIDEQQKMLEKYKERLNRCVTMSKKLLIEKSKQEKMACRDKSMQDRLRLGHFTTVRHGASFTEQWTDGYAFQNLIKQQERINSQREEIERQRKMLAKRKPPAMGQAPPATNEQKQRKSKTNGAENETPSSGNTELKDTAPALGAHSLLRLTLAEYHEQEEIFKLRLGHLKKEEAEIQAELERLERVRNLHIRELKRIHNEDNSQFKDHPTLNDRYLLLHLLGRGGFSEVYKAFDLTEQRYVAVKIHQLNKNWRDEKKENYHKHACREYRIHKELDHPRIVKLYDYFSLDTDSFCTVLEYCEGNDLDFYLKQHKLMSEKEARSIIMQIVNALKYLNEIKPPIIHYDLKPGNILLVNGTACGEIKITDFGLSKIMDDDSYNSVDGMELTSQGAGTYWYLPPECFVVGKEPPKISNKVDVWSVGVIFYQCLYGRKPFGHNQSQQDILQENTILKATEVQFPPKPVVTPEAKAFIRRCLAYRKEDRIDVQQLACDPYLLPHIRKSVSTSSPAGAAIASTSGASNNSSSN
AMPKα1(h), sequence (Q13131 whole entry): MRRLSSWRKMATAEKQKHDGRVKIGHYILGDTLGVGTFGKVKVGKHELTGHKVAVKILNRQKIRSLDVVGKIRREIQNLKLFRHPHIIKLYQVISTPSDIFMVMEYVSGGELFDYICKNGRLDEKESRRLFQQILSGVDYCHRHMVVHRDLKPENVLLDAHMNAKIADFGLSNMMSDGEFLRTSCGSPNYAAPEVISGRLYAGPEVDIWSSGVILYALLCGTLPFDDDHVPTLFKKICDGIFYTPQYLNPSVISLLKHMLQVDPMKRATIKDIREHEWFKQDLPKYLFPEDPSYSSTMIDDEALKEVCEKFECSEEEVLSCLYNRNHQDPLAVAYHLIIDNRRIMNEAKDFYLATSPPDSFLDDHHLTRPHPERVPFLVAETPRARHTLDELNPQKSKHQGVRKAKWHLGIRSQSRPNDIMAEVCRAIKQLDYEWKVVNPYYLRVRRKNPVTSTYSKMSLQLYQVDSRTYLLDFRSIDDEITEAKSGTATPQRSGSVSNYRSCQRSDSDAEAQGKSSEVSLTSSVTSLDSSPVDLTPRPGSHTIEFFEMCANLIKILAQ
AMPKα1(h), sequence (Q9Y478 whole entry partner): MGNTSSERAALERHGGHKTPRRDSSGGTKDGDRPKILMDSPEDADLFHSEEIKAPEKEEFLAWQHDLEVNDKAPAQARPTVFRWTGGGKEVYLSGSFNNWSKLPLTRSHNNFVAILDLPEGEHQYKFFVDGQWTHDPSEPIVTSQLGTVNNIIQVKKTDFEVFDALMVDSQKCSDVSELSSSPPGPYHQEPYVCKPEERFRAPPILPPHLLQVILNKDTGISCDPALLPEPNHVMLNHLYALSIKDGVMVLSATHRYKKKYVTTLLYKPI
AMPKα1(h), sequence (P54619 whole entry partner): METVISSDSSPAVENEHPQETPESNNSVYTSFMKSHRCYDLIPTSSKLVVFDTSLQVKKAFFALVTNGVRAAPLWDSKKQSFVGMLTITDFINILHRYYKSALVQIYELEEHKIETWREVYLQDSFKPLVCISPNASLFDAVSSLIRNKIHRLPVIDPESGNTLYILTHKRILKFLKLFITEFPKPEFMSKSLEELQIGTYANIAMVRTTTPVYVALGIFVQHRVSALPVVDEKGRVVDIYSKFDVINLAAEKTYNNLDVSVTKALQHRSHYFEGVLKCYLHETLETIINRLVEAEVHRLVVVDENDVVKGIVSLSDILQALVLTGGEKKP

| Sequence | % activity (Met(Y1248H)(h)) [%] | % activity (AMPKα1(h)) [%] | % activity (PDK1(h)) [%] | % activity (Arg(h)) [%] | % activity (ASK1(h)) [%] | % activity (Aurora-B(h)) [%] | % activity (TLK2(h)) [%] | % activity (FGFR1(h)) [%] | % activity (AMPKα2(h)) [%] | % activity (SGK(h)) [%] | % activity (CDK9/cyclin T1(h)) [%] | % activity (MINK(h)) [%] |
| --- | --- | --- | --- | --- | --- | --- | --- | --- | --- | --- | --- | --- |
| YARAAARQARAKALNRQLGVA [MMI-0200] | 153 | 108 | 143 | 82 | 101 | 166 | 129 | 97 | 88 | – | – | – |
| FAKLAARLYRKALARQLGVAA [MMI-0300] | – | 71 | 135 | 72 | 80 | 128 | – | 55 | 54 | 48 | 91 | 48 |
| KAFAKLAARLYRKALARQLGVAA [MMI-0400] | 63 | 87 | 159 | 84 | 69 | 150 | 151 | 59 | 58 | 54 | 235 | 52 |
| HRRIKAWLKKIKALARQLGVAA [MMI-0500] | 126 | 35 | 178 | 22 | −4 | 5 | 133 | 18 | 9 | 2 | 6 | 5 |
